Experimental findings from US20240270821A1, “GIP/GLP1/GCG TRI-RECEPTOR AGONISTS AND USES THEREOF” (priority 2023, published 2024) are described below.

What all share (test): cell-based or functional assay
One test deals with hGLP-1R (Homo sapiens, UniProt P43220).
Test [1] concerns the target T1, human GIP receptor (human) (UniProt P48546).
T1 sequence (looked up): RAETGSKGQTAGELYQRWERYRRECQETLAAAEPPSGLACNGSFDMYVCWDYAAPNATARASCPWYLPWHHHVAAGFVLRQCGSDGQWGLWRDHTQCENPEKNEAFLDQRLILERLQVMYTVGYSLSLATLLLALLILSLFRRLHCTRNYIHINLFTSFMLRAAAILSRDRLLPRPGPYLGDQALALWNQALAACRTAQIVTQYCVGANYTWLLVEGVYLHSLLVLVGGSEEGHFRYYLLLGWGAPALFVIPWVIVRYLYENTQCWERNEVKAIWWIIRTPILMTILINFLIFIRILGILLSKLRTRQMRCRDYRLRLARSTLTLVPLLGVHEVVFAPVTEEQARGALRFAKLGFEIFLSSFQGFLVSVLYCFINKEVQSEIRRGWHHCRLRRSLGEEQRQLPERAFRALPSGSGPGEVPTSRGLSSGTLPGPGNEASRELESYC

Test [2] deals with human glucagon receptor (human) (UniProt P47871).
Sequence of human glucagon receptor (human) (P47871 26-477): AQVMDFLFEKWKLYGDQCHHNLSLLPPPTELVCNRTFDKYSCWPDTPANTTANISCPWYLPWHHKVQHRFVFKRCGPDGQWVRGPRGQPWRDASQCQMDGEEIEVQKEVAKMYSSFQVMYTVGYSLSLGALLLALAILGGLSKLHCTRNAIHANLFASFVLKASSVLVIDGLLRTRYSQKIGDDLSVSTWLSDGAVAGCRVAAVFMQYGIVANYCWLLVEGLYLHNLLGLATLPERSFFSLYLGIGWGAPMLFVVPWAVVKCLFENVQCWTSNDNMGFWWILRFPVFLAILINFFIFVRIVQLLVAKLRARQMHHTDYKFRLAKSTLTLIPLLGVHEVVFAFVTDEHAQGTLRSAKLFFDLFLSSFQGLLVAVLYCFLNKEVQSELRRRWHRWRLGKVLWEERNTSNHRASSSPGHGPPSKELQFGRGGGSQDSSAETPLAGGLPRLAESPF

Sequence of hGLP-1R (P43220 24-463): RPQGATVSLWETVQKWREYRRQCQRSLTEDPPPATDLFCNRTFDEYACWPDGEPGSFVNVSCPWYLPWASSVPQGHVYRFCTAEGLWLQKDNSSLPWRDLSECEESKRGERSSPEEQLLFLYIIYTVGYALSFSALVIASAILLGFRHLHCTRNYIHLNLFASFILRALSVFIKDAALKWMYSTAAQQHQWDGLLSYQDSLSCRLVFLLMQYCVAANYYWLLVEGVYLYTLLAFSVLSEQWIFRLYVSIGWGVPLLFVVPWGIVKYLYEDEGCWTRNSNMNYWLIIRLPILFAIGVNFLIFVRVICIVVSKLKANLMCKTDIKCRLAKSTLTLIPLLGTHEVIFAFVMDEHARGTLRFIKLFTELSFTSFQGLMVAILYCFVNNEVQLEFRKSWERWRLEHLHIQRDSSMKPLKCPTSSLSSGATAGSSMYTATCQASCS

B1: Example 1057 (peptide)
chain: YXQGTFTSDXSQXLDXKAQXAFIEYLLAGGPSSGAPPPSGSEE
modifications: non-natural residues, lipidated Lys, C-terminal amide; synthetic construct; SITE 2: note = 2-Aminoisobutyric Acid; SITE 10: note = 3-(4-Pyridyl)-L-alanine; SITE 13: note = alpha-methyl-leucine; SITE 16: note = L-ornithine; SITE 17: note = Lysine is chemically modified through conjugation of the epsilon-amino group of the Lysine side chain with (Glu)-(ga)
Consider B1, for which the Relative cAMP EC50 worked out at 5.16 nM in the test with hGLP-1R, 0.128 nM in test [1] and 5.29 nM in test [2]. In addition, the values for the cAMP Rel EC50 (1% HSA) in test [1] and in test [2] were 25.9 nM and 2780 nM, respectively.

B2: Example 1049 (peptide)
chain: YXQGTFTSDFSXXLDXKAQXAFIEXLLEGGPSSGAPPPGGSEE
modifications: Aib, Orn, αMeL, αMeY; acylated Lys; C-terminal amide; synthetic construct; SITE 2: note = 2-Aminoisobutyric Acid; SITE 12: note = L-ornithine; SITE 13: note = alpha-methyl-leucine; SITE 16: note = L-ornithine; SITE 17: note = Lysine is chemically modified through conjugation of the epsilon-amino group of the Lysine side chain with (gamma-Glu)2-CO-(CH2)
As to B2, the figures for the Relative cAMP EC50 (with hGLP-1R; in test [1]; in test [2]) were 2.23 nM, 0.24 nM and 6.33 nM, respectively. Further, the results for the cAMP Rel EC50 (1% HSA) (with hGLP-1R; in test [1]; in test [2]) were 780 nM, 56.2 nM and 1280 nM, respectively.

B3: Example 1050 (peptide)
chain: YXQGTFTSDFSXXLDXKAQXAFIEXLLEGGPSSGAPPPGGSEE
modifications: non-natural residues; Lys acylated C18 diacid via γGlu2; C-term amide; synthetic construct; SITE 2: note = 2-Aminoisobutyric Acid; SITE 12: note = L-ornithine; SITE 13: note = alpha-methyl-leucine; SITE 16: note = L-ornithine; SITE 17: note = Lysine is chemically modified through conjugation of the epsilon-amino group of the Lysine side chain with (gamma-Glu)2-CO-(CH2)
With B3, the Relative cAMP EC50 was 7.65 nM in the test with hGLP-1R, 0.152 nM in test [1] and 6.8 nM in test [2]. Moreover, the cAMP Rel EC50 (1% HSA) with hGLP-1R was found to be 1240 nM; in test [1] it was 68.5 nM; in test [2], 2040 nM.

B4: Example 1043 (peptide)
chain: YXQGTFTSDXSQXLDXKAQXAFIEXLIEGGPSSGAPPPSGSEE
modifications: non-natural residues, C18 diacid-(γGlu)2 acyl on K, C-terminal amide; synthetic construct; SITE 2: note = 2-Aminoisobutyric Acid; SITE 10: note = 3-(4-Pyridyl)-L-alanine; SITE 13: note = alpha-methyl-leucine; SITE 16: note = L-ornithine; SITE 17: note = Lysine is chemically modified through conjugation of the epsilon-amino group of the Lysine side chain with (gamma-Gl)
For B4, the cAMP Rel EC50, nM (1% HSA) was 268 nM in the test with hGLP-1R, 44.9 nM in test [1] and 2240 nM in test [2].

B5: Example 1065 (peptide)
chain: YXQGTFTSDXSXXLDXKAQXAFIEXLLEGGPSSGAPPPSGSEE
modifications: Aib, 4Pal, Orn, αMeL, αMeY; lipidated Lys; C-terminal amide; synthetic construct; SITE 2: note = 2-Aminoisobutyric Acid; SITE 10: note = 3-(4-Pyridyl)-L-alanine; SITE 12: note = L-ornithine; SITE 13: note = alpha-methyl-leucine; SITE 16: note = L-ornithine; SITE 17: note = Lysine is chemically modified through conjugation of the epsilon-amino group of the Lys
Regarding B5, the Relative cAMP EC50 with hGLP-1R was determined as 11.6 nM; in test [1], 0.293 nM; in test [2], 19.7 nM. Besides, the cAMP Rel EC50 (1% HSA) worked out at 2290 nM with hGLP-1R, 39.1 nM in test [1] and 3080 nM in test [2].

B6: Example 1059 (peptide)
chain: YXQGTFTSDXSXXLDXKAQXAFIEYLIAGGPSSGAPPPSGSEE
modifications: acylated Lys, C-terminal amide, non-natural residues; synthetic construct; SITE 2: note = 2-Aminoisobutyric Acid; SITE 10: note = 3-(4-Pyridyl)-L-alanine; SITE 12: note = L-ornithine; SITE 13: note = alpha-methyl-leucine; SITE 16: note = L-ornithine; SITE 17: note = Lysine is chemically modified through conjugation of the epsilon-amino group of the Lys
Take B6: the Relative cAMP EC50 turned out to be 4.61 nM with hGLP-1R, 0.468 nM in test [1] and 7.52 nM in test [2]. Besides, the cAMP Rel EC50 (1% HSA) came out at 48.9 nM in test [1] and 748 nM in test [2].

B7: Example 1044 (peptide)
chain: YXQGTFTSDXSQXLDXKAQXAFIEXLIEGGPSSGAPPPSGSEE
modifications: non-natural residues, (γGlu)2-C18 diacid lysine acylation, C-terminal amide; synthetic construct; SITE 2: note = 2-Aminoisobutyric Acid; SITE 10: note = 3-(4-Pyridyl)-L-alanine; SITE 13: note = alpha-methyl-leucine; SITE 16: note = L-ornithine; SITE 17: note = Lysine is chemically modified through conjugation of the epsilon-amino group of the Lysine side chain with (gamma-Gl)
On to B7, for which the cAMP Rel EC50, nM (1% HSA) with hGLP-1R amounted to 1110 nM; in test [1], 88.7 nM; in test [2] it was 2410 nM.

B8: Example 1064 (peptide)
chain: YXQGTFTSDXSXXLDXKAQXAFIEXLLEGGPSSGAPPPSGSEE
modifications: Aib, 4Pal, Orn, αMeL, αMeY; lysine acylated C18 diacid; amide; synthetic construct; SITE 2: note = 2-Aminoisobutyric Acid; SITE 10: note = 3-(4-Pyridyl)-L-alanine; SITE 12: note = L-ornithine; SITE 13: note = alpha-methyl-leucine; SITE 16: note = L-ornithine; SITE 17: note = Lysine is chemically modified through conjugation of the epsilon-amino group of the Lys
On to B8, for which the Relative cAMP EC50 with hGLP-1R came to 7.89 nM; in test [1] it was 0.556 nM; in test [2] it was 13.7 nM. Further, the cAMP Rel EC50 (1% HSA) with hGLP-1R was 912 nM; in test [1], 62.5 nM; in test [2], 1940 nM.

B9: Example 1053 (peptide)
chain: YXQGTFTSDFSXXLDXKAQXAFIEXLLAGGPSSGAPPPEGSEE
modifications: non-natural residues, (γGlu)2-C18 diacid lysine acylation, C-terminal amide; synthetic construct; SITE 2: note = 2-Aminoisobutyric Acid; SITE 12: note = L-ornithine; SITE 13: note = alpha-methyl-leucine; SITE 16: note = L-ornithine; SITE 17: note = Lysine is chemically modified through conjugation of the epsilon-amino group of the Lysine side chain with (gamma-Glu)2-CO-(CH2)
Regarding B9, the values for the Relative cAMP EC50 (in the test with hGLP-1R; in test [1]; in test [2]) were 6.2 nM, 0.123 nM and 10.4 nM, respectively. Also, the cAMP Rel EC50 (1% HSA) in test [1] came out at 19.3 nM; in test [2] it was 3470 nM.

B10: Example 1056 (peptide)
chain: YXQGTFTSDXSQXLDXKAQXAFIEYLLAGGPSSGAPPPSGSEE
modifications: non-natural residues; lipidated Lys; C-terminal amide; synthetic construct; SITE 2: note = 2-Aminoisobutyric Acid; SITE 10: note = 3-(4-Pyridyl)-L-alanine; SITE 13: note = alpha-methyl-leucine; SITE 16: note = L-ornithine; SITE 17: note = Lysine is chemically modified through conjugation of the epsilon-amino group of the Lysine side chain with (gamma-Gl)
Consider B10, for which the Relative cAMP EC50 was 4.25 nM with hGLP-1R, 0.0929 nM in test [1] and 3.98 nM in test [2]. Also, the figures for the cAMP Rel EC50 (1% HSA) in test [1] and in test [2] were 29.6 nM and 1650 nM, respectively.

B11: Example 1048 (peptide)
chain: YXQGTFTSDFSXXLDXKAQXAFIEYLLEGGPSSGAPPPGGSEE
modifications: non-natural residues (Aib, Orn, αMeL); lipidated Lys; C-terminal amide; synthetic construct; SITE 2: note = 2-Aminoisobutyric Acid; SITE 12: note = L-ornithine; SITE 13: note = alpha-methyl-leucine; SITE 16: note = L-ornithine; SITE 17: note = Lysine is chemically modified through conjugation of the epsilon-amino group of the Lysine side chain with (gamma-Glu)2-CO-(CH2)
Take B11: the results for the Relative cAMP EC50 (in the test with hGLP-1R; in test [1]; in test [2]) were 6.23 nM, 0.356 nM and 6.9 nM, respectively. The cAMP Rel EC50, nM (1% HSA) in the test with hGLP-1R was 1900 nM; in test [1], 108 nM; in test [2] it was 1930 nM.

B12: Example 1047 (peptide)
chain: YXQGTFTSDFSXXLDKKAQXAFIEYLLEGGPSSGAPPPGGSEE
modifications: non-natural residues, C-terminal amide, acylated Lys with fatty diacid; synthetic construct; SITE 2: note = 2-Aminoisobutyric Acid; SITE 12: note = L-ornithine; SITE 13: note = alpha-methyl-leucine; SITE 17: note = Lysine is chemically modified through conjugation of the epsilon-amino group of the Lysine side chain with (gamma-Glu)2-CO-(CH2)16-CO2H; SITE 20: note = 2-Am
On to B12, for which the Relative cAMP EC50 is 16.2 nM with hGLP-1R, 0.28 nM in test [1] and 8.18 nM in test [2]. Further, the cAMP Rel EC50, nM (1% HSA) was determined as 1960 nM in the test with hGLP-1R, 60.8 nM in test [1] and 1510 nM in test [2].

B13: Example 1051 (peptide)
chain: YXQGTFTSDFSXXLDKKAQXAFIEYLLAGGPSSGAPPPEGSEE
modifications: Aib, Orn, αMeL; acylated Lys; C-terminal amide; synthetic construct; SITE 2: note = 2-Aminoisobutyric Acid; SITE 12: note = L-ornithine; SITE 13: note = alpha-methyl-leucine; SITE 17: note = Lysine is chemically modified through conjugation of the epsilon-amino group of the Lysine side chain with (gamma-Glu)2-CO-(CH2)16-CO2H; SITE 20: note = 2-Am
On to B13, for which the Relative cAMP EC50 was 8.3 nM with hGLP-1R, 0.172 nM in test [1] and 10.3 nM in test [2]. The cAMP Rel EC50 (1% HSA) was found to be 32.6 nM in test [1] and 1800 nM in test [2].
